Residue numbers refer to the chain shown, from its start.
T1: PRAME peptide on HLA-A*02:01 (human)
T1 peptide: SLLQHLIGL

B1: nwTCR-2916 (TCR, V domains shown)
Valpha: GQQLNQSPQSMFIQEGEDVSMNCTSSSIFNTWLWYKQDPGEGPVLLIALYKAGELTSNGRLTAQFGITRKDSFLNISASIPSDVGIYFCAGQDDGGSQGNLIFGKGTKLSVKP
Vbeta: DSGVTQTPKHLITATGQRVTLRCSPRSGDLSVYWYQQSLDQGLQFLIQYYNGEERAKGNILERFSAQQFPDLHSELNLSSLELGDSALYFCASSPWTSGGDGELFFGEGSRLTVL
B2: nwTCR-3125 (TCR, V domains shown)
Valpha: QKEVEQNSGPLSVPEGAIASLNCTYSDRVSQSFFWYRQYSGKSPELIMSIYSNGDKEDGRFTAQLNKASQYVSLLIRDSQPSDSATYLCALVSGTYKYIFGTGTRLKVLA
Vbeta: DTAVSQTPKYLVTQMGNDKSIKCEQNLGHDTMYWYKQDSKKFLKIMFSYNNKELIINETVPNRFSPKSPDKAHLNLHINSLELGDSAVYFCASSPGLAYEQYFGPGTRLTVT
B3: nwTCR-2719 (TCR, V domains shown)
Valpha: GIQVEQSPPDLILQEGANSTLRCNFSDSVNNLQWFHQNPWGQLINLFYIPSGTKQNGRLSATTVATERYSLLYISSSQTTDSGVYFCAVLAPGTYKYIFGTGTRLKVLA
Vbeta: EAQVTQNPRYLITVTGKKLTVTCSQNMNHEYMSWYRQDPGLGLRQIYYSMNVEVTDKGDVPEGYKVSRKEKRNFPLILESPSPNQTSLYFCASSWGSGYEQYFGPGTRLTVT
B4: nwTCR-2915 (TCR, V domains shown)
Valpha: GESVGLHLPTLSVQEGDNSIINCAYSNSASDYFIWYKQESGKGPQFIIDIRSNMDKRQGQRVTVLLNKTVKHLSLQIAATQPGDSAVYFCAESYGQKLLFARGTMLKVDL
Vbeta: B3 Vbeta with W95F, G96W, G98A, Y99G, Q101L, Y102F, P105E, T107S, T112L
B5: nwTCR-2793 (TCR, V domains shown)
Valpha: QKEVEQNSGPLSVPEGAIASLNCTYSDRVSQSFFWYRQYSGKSPELIMSIYSNGDKEDGRFTAQLNKASQYVSLLIRDSQPSDSATYLCAVVSSNDYKLSFGAGTTVTVRA
Vbeta: B3 Vbeta with W95P, S97T, G98I, Y99G, Q101L, Y102F, P105E, T107S, T112L
B6: nwTCR-3095 (TCR, V domains shown)
Valpha: DQQVKQNSPSLSVQEGRISILNCDYTNSMFDYFLWYKKYPAEGPTFLISISSIKDKNEDGRFTVFLNKSAKHLSLHIVPSQPGDSAVYFCAAFASDSNYQLIWGAGTKLIIKP
Vbeta: DTAVSQTPKYLVTQMGNDKSIKCEQNLGHDTMYWYKQDSKKFLKIMFSYNNKELIINETVPNRFSPKSPDKAHLNLHINSLELGDSAVYFCASSPWTSGGNGELFFGEGSRLTVL
B7: nwTCR-2614 (TCR, V domains shown)
Valpha: AQTVTQSQPEMSVQEAETVTLSCTYDTSENNYYLFWYKQPPSRQMILVIRQEAYKQQNATENRFSVNFQKAAKSFSLKISDSQLGDTAMYFCAFDNNARLMFGDGTQLVVKP
Vbeta: GAVVSQHPSWVICKSGTSVKIECRSLDFQATTMFWYRQFPKQSLMLMATSNEGSKATYEQGVEKDKFLINHASLTLSTLTVTSAHPEDSSFYICSATRDSSYNEQFFGPGTRLTVL
B8: nwTCR-2718 (TCR, V domains shown)
Valpha: GQQLNQSPQSMFIQEGEDVSMNCTSSSIFNTWLWYKQDPGEGPVLLIALYKAGELTSNGRLTAQFGITRKDSFLNISASIPSDVGIYFCAGFSQGGSEKLVFGKGTKLTVNP
Vbeta: DSGVTQTPKHLITATGQRVTLRCSPRSGDLSVYWYQQSLDQGLQFLIQYYNGEERAKGNILERFSAQQFPDLHSELNLSSLELGDSALYFCASSPWTAGGNTIYFGEGSWLTVV
B9: nwTCR-2555 (TCR, V domains shown)
Valpha: AQSVSQHNHHVILSEAASLELGCNYSYGGTVNLFWYVQYPGQHLQLLLKYFSGDPLVKGIKGFEAEFIKSKFSFNLRKPSVQWSDTAEYFCAVKMDSSYKLIFGSGTRLLVRP
Vbeta: DGGITQSPKYLFRKEGQNVTLSCEQNLNHDAMYWYRQDPGQGLRLIYYSQIVNDFQKGDIAEGYSVSREKKESFPLTVTSAQKNPTAFYLCASLGLNYNEQFFGPGTRLTVL
B10: nwTCR-3028 (TCR, V domains shown)
Valpha: SQQGEEDPQALSIQEGENATMNCSYKTSINNLQWYRQNSGRGLVHLILIRSNEREKHSGRLRVTLDTSKKSSSLLITASRAADTASYFCATDVKSSYKLIFGSGTRLLVRP
Vbeta: AAGVIQSPRHLIKEKRETATLKCYPIPRHDTVYWYQQGPGQDPQFLISFYEKMQSDKGSIPDRFSAQQFSDYHSELNMSSLELGDSALYFCASSLGLLGNEQFFGPGTRLTVL
B11: nwTCR-2720 (TCR, V domains shown)
Valpha: SQQGEEDPQALSIQEGENATMNCSYKTSINNLQWYRQNSGRGLVHLILIRSNEREKHSGRLRVTLDTSKKSSSLLITASRAADTASYFCATDLSGAGSYQLTFGKGTKLSVIP
Vbeta: EAQVTQNPRYLITVTGKKLTVTCSQNMNHEYMSWYRQDPGLGLRQIYYSMNVEVTDKGDVPEGYKVSRKEKRNFPLILESPSPNQTSLYFCASSLGTGFGELFFGEGSRLTVL
B12: nwTCR-2970 (TCR, V domains shown)
Valpha: QQPVQSPQAVILREGEDAVINCSSSKALYSVHWYRQKHGEAPVFLMILLKGGEQKGHDKISASFNEKKQQSSLYLTASQLSYSGTYFCGTEFRNDYKLSFGAGTTVTVRA
Vbeta: B11 Vbeta with L95P, F99G, G100Y, E101G, L102Y, F103T, E106S, S108T, L113V
B13: nwTCR-2523 (TCR, V domains shown)
Valpha: RKEVEQDPGPFNVPEGATVAFNCTYSNSASQSFFWYRQDCRKEPKLLMSVYSSGNEDGRFTAQLNRASQYISLLIRDSKLSDSATYLCVVNRGSQGNLIFGKGTKLSVKP
Vbeta: DAGVTQSPTHLIKTRGQQVTLRCSPKSGHDTVSWYQQALGQGPQFIFQYYEEEERQRGNFPDRFSGHQFPNYSSELNVNALLLGDSALYLCASSLVDYEQYFGPGTRLTVT
B14: nwTCR-2583 (TCR, V domains shown)
Valpha: GQSLEQPSEVTAVEGAIVQINCTYQTSGFYGLSWYQQHDGGAPTFLSYNALDGLEETGRFSSFLSRSDSYGYLLLQELQMKDSASYFCALGTEDKIIFGKGTRLHILP
Vbeta: EAQVTQNPRYLITVTGKKLTVTCSQNMNHEYMSWYRQDPGLGLRQIYYSMNVEVTDKGDVPEGYKVSRKEKRNFPLILESPSPNQTSLYFCASRISLGANYGYTFGSGTRLTVV
B15: nwTCR-3173 (TCR, V domains shown)
Valpha: SQQGEEDPQALSIQEGENATMNCSYKTSINNLQWYRQNSGRGLVHLILIRSNEREKHSGRLRVTLDTSKKSSSLLITASRAADTASYFCATYANDYKLSFGAGTTVTVRA
Vbeta: B14 Vbeta with R94S, I95A, S96G, L97T, A99G, N100F, Y101V

Target: T1, PRAME peptide on HLA-A*02:01
Assay: multimer staining

Binding result, recognises:
B1
B2
B3
B4
B5
B6
B7
B8
B9
B10
B11
B12
B13
B14
B15
